Results on one molecule are retold here after US20080274950A1 (BABRAHAM INSTITUTE, published 2008).

Common to all, as to assay: adhesion of K562 transfectants to coated N-cadherin Fc
The target of assay [1] is T1, full length chicken N-cadherin with the mutation E89A expressed on K562 cells (chicken, UniProt P10288 165-912, E89A).
T1 construct: whole, on cells; also called cells expressing the E89A mutation; K562 E89A
T1 sequence (looked up): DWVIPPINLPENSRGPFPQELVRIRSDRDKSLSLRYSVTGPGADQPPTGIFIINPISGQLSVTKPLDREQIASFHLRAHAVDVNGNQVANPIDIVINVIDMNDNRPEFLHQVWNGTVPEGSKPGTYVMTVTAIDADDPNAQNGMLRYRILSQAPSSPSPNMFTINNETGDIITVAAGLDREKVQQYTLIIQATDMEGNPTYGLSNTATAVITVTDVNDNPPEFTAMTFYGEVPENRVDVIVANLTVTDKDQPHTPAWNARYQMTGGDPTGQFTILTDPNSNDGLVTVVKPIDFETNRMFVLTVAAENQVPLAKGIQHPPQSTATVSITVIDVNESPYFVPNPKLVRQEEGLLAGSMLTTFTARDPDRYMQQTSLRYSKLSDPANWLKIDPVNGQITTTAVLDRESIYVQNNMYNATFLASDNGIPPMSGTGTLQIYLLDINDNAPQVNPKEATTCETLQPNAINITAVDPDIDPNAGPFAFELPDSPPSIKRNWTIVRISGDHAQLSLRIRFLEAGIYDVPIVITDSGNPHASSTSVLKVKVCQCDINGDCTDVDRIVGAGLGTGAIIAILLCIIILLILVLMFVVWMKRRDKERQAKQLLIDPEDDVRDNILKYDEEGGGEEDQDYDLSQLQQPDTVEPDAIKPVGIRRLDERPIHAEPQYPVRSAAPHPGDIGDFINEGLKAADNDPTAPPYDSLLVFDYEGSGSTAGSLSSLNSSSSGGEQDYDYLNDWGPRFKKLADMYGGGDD
In outline:
(§1)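 K562 (or L) cells transfected with wild-type or mutant N-cadherin settled 45 min at 37 °C onto N-cadherin Fc coated at 1 µg/ml. After non-adherent cells were washed off, bound cells were quantified by acid phosphatase activity. Values are % cells adhering ± SEM, quadruplicate.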

Assay [2] has as its target T2, wild type full length chicken N-cadherin expressed on stably transfected K562 cells (chicken, UniProt P10288 165-912).
T2 construct: whole, on cells; also called K562 transfectants (Wt); wild type cells
T2 sequence (looked up): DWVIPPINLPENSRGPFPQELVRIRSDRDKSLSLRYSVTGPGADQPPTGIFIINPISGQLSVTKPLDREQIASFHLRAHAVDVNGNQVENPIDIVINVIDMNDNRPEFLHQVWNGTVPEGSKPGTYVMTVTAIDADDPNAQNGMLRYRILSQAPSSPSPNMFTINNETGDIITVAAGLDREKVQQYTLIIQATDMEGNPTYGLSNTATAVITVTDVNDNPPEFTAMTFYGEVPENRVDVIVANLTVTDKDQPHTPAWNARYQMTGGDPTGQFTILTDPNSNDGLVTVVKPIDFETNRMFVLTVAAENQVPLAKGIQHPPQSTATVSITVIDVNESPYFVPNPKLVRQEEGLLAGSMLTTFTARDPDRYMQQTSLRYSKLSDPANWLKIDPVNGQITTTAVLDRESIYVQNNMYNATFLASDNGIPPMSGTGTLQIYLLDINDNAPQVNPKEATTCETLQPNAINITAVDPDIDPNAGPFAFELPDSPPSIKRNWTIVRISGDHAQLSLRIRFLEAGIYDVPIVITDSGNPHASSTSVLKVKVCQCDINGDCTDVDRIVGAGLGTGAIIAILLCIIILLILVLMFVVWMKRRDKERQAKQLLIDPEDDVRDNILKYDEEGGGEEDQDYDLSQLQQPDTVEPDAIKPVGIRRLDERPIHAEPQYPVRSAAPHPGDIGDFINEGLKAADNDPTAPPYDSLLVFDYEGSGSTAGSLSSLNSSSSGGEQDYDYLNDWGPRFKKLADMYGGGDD
In short, it runs like this:
as §1

The target of assay [3] is T3, full length chicken N-cadherin with the N-terminus extended by two glycine residues (GG) expressed on K562 … (chicken, UniProt P10288 165-912).
T3 construct: whole, on cells; also called cells expressing the GG N-terminal extension mutant; K562 GG
T3 sequence: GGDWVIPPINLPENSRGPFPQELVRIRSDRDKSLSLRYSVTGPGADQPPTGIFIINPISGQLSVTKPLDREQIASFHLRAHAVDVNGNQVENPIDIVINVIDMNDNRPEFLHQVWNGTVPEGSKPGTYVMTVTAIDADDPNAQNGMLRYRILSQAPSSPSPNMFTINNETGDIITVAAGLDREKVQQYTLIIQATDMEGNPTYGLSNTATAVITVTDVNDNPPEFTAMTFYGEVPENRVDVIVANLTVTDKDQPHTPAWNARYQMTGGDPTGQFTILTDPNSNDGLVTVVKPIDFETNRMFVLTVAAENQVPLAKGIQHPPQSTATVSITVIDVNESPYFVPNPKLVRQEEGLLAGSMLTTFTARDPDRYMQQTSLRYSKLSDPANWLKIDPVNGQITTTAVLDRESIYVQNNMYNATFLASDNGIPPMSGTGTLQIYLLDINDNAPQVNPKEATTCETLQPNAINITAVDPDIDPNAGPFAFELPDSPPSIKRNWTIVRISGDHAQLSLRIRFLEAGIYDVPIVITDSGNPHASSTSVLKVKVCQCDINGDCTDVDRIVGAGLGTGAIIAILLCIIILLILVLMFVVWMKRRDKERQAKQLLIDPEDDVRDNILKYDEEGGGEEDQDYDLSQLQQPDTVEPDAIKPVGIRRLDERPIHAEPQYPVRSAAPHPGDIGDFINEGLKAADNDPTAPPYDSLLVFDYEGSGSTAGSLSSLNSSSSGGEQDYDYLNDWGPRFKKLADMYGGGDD
In outline: as §1

B1: chicken N-cadherin-Fc fusion protein with the mutation D134A, dimeric (Fc fusion, UniProt P10288 165-728, looked up)
chain: DWVIPPINLPENSRGPFPQELVRIRSDRDKSLSLRYSVTGPGADQPPTGIFIINPISGQLSVTKPLDREQIASFHLRAHAVDVNGNQVENPIDIVINVIDMNDNRPEFLHQVWNGTVPEGSKPGTYVMTVTAIAADDPNAQNGMLRYRILSQAPSSPSPNMFTINNETGDIITVAAGLDREKVQQYTLIIQATDMEGNPTYGLSNTATAVITVTDVNDNPPEFTAMTFYGEVPENRVDVIVANLTVTDKDQPHTPAWNARYQMTGGDPTGQFTILTDPNSNDGLVTVVKPIDFETNRMFVLTVAAENQVPLAKGIQHPPQSTATVSITVIDVNESPYFVPNPKLVRQEEGLLAGSMLTTFTARDPDRYMQQTSLRYSKLSDPANWLKIDPVNGQITTTAVLDRESIYVQNNMYNATFLASDNGIPPMSGTGTLQIYLLDINDNAPQVNPKEATTCETLQPNAINITAVDPDIDPNAGPFAFELPDSPPSIKRNWTIVRISGDHAQLSLRIRFLEAGIYDVPIVITDSGNPHASSTSVLKVKVCQCDINGDCTDVDRIVGAGLGT
notes: extracellular domain; also called D134A mutant; N-cadherin Fc mutant D134A; not shown: hinge region, CH2 and CH3 domains of human IgG1 heavy chain (vector pIgSig)
Turning to B1, the binding result in assay [1], in assay [2] and in assay [3] was “no binding (tested: Fc fusion protein coated at 1 µg/ml)” in each case.
